Experimental findings from the RNAGym collection of RNA variant scans (doi:10.1073/pnas.2313332121) are described below.

First the molecules themselves.
B1: TPR t1 (parent)
chain: GACCAAUCUGCCCUCAGAGCUCGAGAACAUCUUCGGAUGCAGAGGAGGCAGGCUUCGGUGGCGCGAUAGCGCCAACGUCCUCAACCUCCAAUGCAUCCCACCACAUGAUGAUGCCUGAAGAGCCUUGGUUUUUUG

This data set covers variants of B1. The data set is described as follows: polymerase ribozyme fitness, log enrichment relative to wild type (log ratio); higher = more active; in vitro selection for triplet polymerase activity. In short, it runs like this: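 The heterodimeric triplet polymerase ribozyme's subunits were each mutagenized into PCR-built libraries and transcribed. Every library was selected once, in triplicate, by annealing with a biotinylated primer, the partner subunit and triplets, incubating frozen at −7 °C, gel-excising extended constructs, capturing on streptavidin beads and running RT-PCR. Input and output libraries were Illumina-sequenced, with genotypes kept only at ≥10 input reads and ≥1 read per output. Fitness, from inverse-variance-weighted replicate averages, is the base-2 logarithm of genotype enrichment over wild-type enrichment.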
In the case of C20G C49A U96G U112G C115G C123A, the “polymerase ribozyme fitness (log ratio)” value is -7.57. As for C20G A83C A100U G120A U130C, the figure is -5.79; as for C20G G57C, -4.41. As for G19C C53A G93A C123U, the figure is -2.59; as for A18G U54A C88G A111C G113C U125A, -3.51.

On to A18C C89G U116C C124A, for which the “polymerase ribozyme fitness (log ratio)” value was -0.0811. On to A18C G48A C94G, for which the “polymerase ribozyme fitness (log ratio)” value is -3.96. With A18C G39U C101A the figure was -3.85; with G19U G39C C53U C124A, -2.93.

As to C20G U78C U109G, the “polymerase ribozyme fitness (log ratio)” value is -3.79.

With G19U C101A, the “polymerase ribozyme fitness (log ratio)” value is -4.08. As for C20G C56U C82A G113C, the figure is -2.04; as for C20U C49U C56G U78G U81A C86U U133G, -3.51; as for C20A C49A U81A C104U G120C U133A G135U, -2.32.

As for A18C C86G, the “polymerase ribozyme fitness (log ratio)” value is -3.25. As for G19C G45A U78C C82G U112C, the “polymerase ribozyme fitness (log ratio)” value is -1.42. With A18C C40U G48A C56G A84C C114U the figure was -5.13; with G19U A50U C124G, -2.97; with C20A A46U G52A, -3.85. With G19A A29C U109A G120C the figure was -5.43; with C20A U112G, -1.72. Take C20A U112C: the “polymerase ribozyme fitness (log ratio)” value was -1.35. With G19C A84G the figure was -3.14; with A18U U92G, -3.54.

Regarding A18U A68G U81A C123U, the “polymerase ribozyme fitness (log ratio)” value was -5.83. With A18G C62U A74C the figure was -5.71; with A18U G42U G69A A100U C114A G128U, -7.14; with C20A G71U, -2.48.

Regarding C20A U21A C73G, the “polymerase ribozyme fitness (log ratio)” value is -4.94. As for C20A C40A C72U C73U, the figure is -4.3. For the variant A18C C72U G113C, the “polymerase ribozyme fitness (log ratio)” value is -3.97.

For G19U C76A C85U C124G, the “polymerase ribozyme fitness (log ratio)” value was -3.5. As for C20U C62A, the figure is -2.35; as for A18U C76A G93C, -4.09; as for A18C C56A C82A C94U U106C, -4.93. As for G19A U78C C124A U129C, the figure is -1.77; as for A18C A100C, -4.31; as for C20U A50U U78C, -1.87. With G19C G71U G120U G122A C123U the figure was -3.78; with A18U A74U, -3.3; with A18G C70U A95U C124A, -4.13. As for G19A G48U C53G G58U U59A, the “polymerase ribozyme fitness (log ratio)” value is -3.69. As for A18U C62A, the figure is -4.11. As for A18U A26G C56U C123G, the figure is -0.0936. For A18G C22G C104A, the “polymerase ribozyme fitness (log ratio)” value is -5.54. With A18G G19C C53U A111U the figure was -4.72; with C20A C34A A41C U109A, -4.4. With A18U G69C C85A C89G the figure was -6.03; with G19C U78C G110C, -5.42; with G19A C101U, -3.3.

On to C20A G71A U129G, for which the “polymerase ribozyme fitness (log ratio)” value is -5.06. With A18U A29G C56A C80A the figure was -6.14; with G19C C70U, -2.55; with C20U A27C A84U C123A, -5.42. With A18U A29U U54G U78C C89G C114G the figure was -3.24; with A18C C53U C70U, -4.83; with G19U C73A C80U U112C C114A U126A, -1.24. Consider C20A G23A G36A G48A G113A, for which the “polymerase ribozyme fitness (log ratio)” value was -7.55.

Take G19U A46C: the “polymerase ribozyme fitness (log ratio)” value is -3.44.

Take G19A G63A: the “polymerase ribozyme fitness (log ratio)” value is -3.09. G19A C73A A105U C114U U116G: the “polymerase ribozyme fitness (log ratio)” value was -5.41. As for G19A C56U C115A, the figure is -3.68; as for C20A G58U G71U C89G, -5.13; as for C20U A95C U129A, -2.94. Turning to C20A C64U U78C U96A C102G C114A, the “polymerase ribozyme fitness (log ratio)” value was -6.83. As for G19U G110C, the figure is -5.06; as for A18C G93C, -3.24; as for A18G C34A, -5.57. Turning to C20G C99G G110C, the “polymerase ribozyme fitness (log ratio)” value is -7.02. Take A18C A66U: the “polymerase ribozyme fitness (log ratio)” value is -5.53. As for A18G C70A A91C G113A, the figure is -2.9.

Take A18U G39A U54A C70A C124U G127A: the “polymerase ribozyme fitness (log ratio)” value is -4.66. As for C20A G122A, the figure is -3.47; as for A18U U81A C114A, -3.7; as for A18G G36A G61A U116C A118G, -3.23. As for A18U G120A, the figure is -1.14; as for A18U U21C G36A C114U, -3.69; as for G19A C72U, -3.79. With A18C A29U C88U C89U C97U the figure was -4.49; with G17U U38G G45A C88U C101U, -2.92.

In the case of G19C G36A G48A C82U C124A, the “polymerase ribozyme fitness (log ratio)” value is -3.64. Turning to C20G A26G C64A C70U U78C U112A, the “polymerase ribozyme fitness (log ratio)” value was -5.93. Turning to A18U G42C A50U, the “polymerase ribozyme fitness (log ratio)” value was -3.92.

Take A18C C56U U132A: the “polymerase ribozyme fitness (log ratio)” value was -2.9.
